This is an account of results in PMC3035719.

The target of one test is MBP-DGKδSAM-V52E (UniProt Q16760). The test can be described thus: SPR.
Another test has as its target MBP-DGKδSAM-H38A/V52E. Nature of the test: SPR. For orientation: Surface plasmon resonance follows binding to a sensor surface in real time, without labels.

What is called Kd is the constant that tells how readily two partners part at equilibrium. A high value points to weaker binding. For MBP-DGKδSAM-E35G (domain or fragment), the Kd in the test with MBP-DGKδSAM-V52E is 12.2 µM; in the test with MBP-DGKδSAM-H38A/V52E, 23 µM.
